These results are taken from patent EP4700044A1, “PROTEIN ANALOGUE AND USE THEREOF” (Shanghai Duomirui Biotechnology., Ltd., priority 2023, dated 2024).

The target in data set [1] is T1, FGFR1c and the cofactor β-Klotho (Homo sapiens, UniProt P11362+Q86Z14).
T1 construct: host or cells: iLite FGF21 assay ready cells (genetically engineered reporter gene cell line)
As to the kind of experiment: dual-luciferase reporter gene assay in iLite FGF21 assay ready cells. It is filed as cell-based. From the text: iLite FGF21 assay ready cells (purchased from SAVR) is a genetically engineered reporter gene cell line that responds to signals downstream to FGF21 agonism through the expression of firefly luciferase. The receptor FGFR1c and the cofactor β-Klotho were co-overexpressed on the surface of iLite FGF21 assay ready cells and have undergone genetic optimization to enhance sensitivity, such that FGF21 will cause an increase in luciferase expression in a dose-response manner. The luciferase activity detection kit was purchased from Promega (catalog number #E2980).
iLite FGF21 assay ready cells were cultured adherently in basal medium (DMEM Gluta Max, purchased from Gibco) containing 10% fetal bovine serum (FBS, purchased from Gibco) and 1% penicillin/streptomycin (purchased from Gibco). For the activity determination experiment, […] cells per well and test samples such as FGF21 mutant proteins and FGF21 conjugate molecules modified with albumin-binding agent were added to all-white 96-well culture plates (purchased from Corning), and the chemiluminescence values were detected in a microplate reader according to the instructions of the luciferase activity detection kit. Finally, the half-maximal effective concentration (EC50) values of the tested samples were obtained by means of four-parameter fitting.
In general terms: A reporter such as luciferase makes a cellular process visible.

Data set [2] can be described thus: pharmacokinetic test in minipigs. The following applies: 1 mg/kg, subcutaneous injection, plasma, human FGF21 ELISA. Type of data set: in vivo. Here is the method: (§1) The pharmacokinetic properties of protein analogs can be tested in mice or minpigs.
Minipig experiment (N = 3): The injection dose was 1 mg/kg, and the injection method was subcutaneous injection. The blood-collection time points for plasma samples were 0.083, 0.25, 0.5, 1, 2, 4, 6, 8, 12, 24, 48, 72, 96, 120, 144, 168, 192, 216, 240, 264, 288 h. The blood was collected into EDTA·2K-coated test tubes (which must be temporarily stored on ice) and centrifuged at 1200 × g for 10 minutes at 4°C. Subsequently, the plasma was transferred to Micronic tubes and stored at -20°C. The human FGF21 detection ELISA kit (CAT: RD191108200R) produced by Biovendor was used to monitor the blood drug concentration.
A general note: In an ELISA, binding on a coated surface is turned into a signal by an enzyme label.

Data set [3] relates to high-fat diet-induced db/db mice. The experiment in a line: pharmacodynamic test in db/db mice induced by high-fat diet (NASH model). It is filed as in vivo. As to conditions: subcutaneous injection once every three days, 6 weeks, liver sections, hematoxylin-eosin staining. From the text:
Establishment of a db/db mouse model induced by high-fat diet: Male db/db mice, 8 weeks old, were adaptively fed with a standard diet for 2-3 days, after which all feed was replaced with 60% high-fat feed for rearing. After 3 weeks of high-fat feed feeding, the NASH model could be obtained. Administration: N = 6, subcutaneous injection of Vehicle and protein analogues (5 or 20 nmol/kg) was given once every three days, with an administration period of 6 weeks.
At the end of the administration, liver tissue sections were taken for hematoxylin-eosin staining to detect the effect of protein analogs on the non-alcoholic fatty liver disease activity score (NAS score) in high-fat diet-induced db/db mice.

The nature of data set [4]: pharmacokinetic test in mice. It is filed as in vivo. The following applies: 1 mg/kg, subcutaneous injection, plasma, human FGF21 ELISA. On the procedure: as §1
Mice experiment (N = 3): The injection dose was 1 mg/kg, and the injection method was subcutaneous injection. The blood-collection time points for plasma samples were 0.08, 0.25, 0.5, 1, 2, 4, 6, 8, 12, 24, 48, and 72 hours. The blood was collected into EDTA·2K-coated test tubes (which must be temporarily stored on ice) and centrifuged at 1200 × g for 10 minutes at 4°C. Subsequently, the plasma was transferred to Micronic tubes and stored at -20°C. The human FGF21 detection ELISA kit (RD191108200R) produced by Biovendor was used to monitor the blood drug concentration.

Where [5] appears, read: Example 13, four-parameter fitting.
Where [6] appears, read: Example 6, four-parameter fitting.

Usually EC50 stands for the midpoint of the concentration-response curve. A lower EC50 goes with greater potency. What is called half-life is the time in which the quantity being followed falls by half. A lower half-life goes with fast loss.

T1 sequence (P11362 22-822): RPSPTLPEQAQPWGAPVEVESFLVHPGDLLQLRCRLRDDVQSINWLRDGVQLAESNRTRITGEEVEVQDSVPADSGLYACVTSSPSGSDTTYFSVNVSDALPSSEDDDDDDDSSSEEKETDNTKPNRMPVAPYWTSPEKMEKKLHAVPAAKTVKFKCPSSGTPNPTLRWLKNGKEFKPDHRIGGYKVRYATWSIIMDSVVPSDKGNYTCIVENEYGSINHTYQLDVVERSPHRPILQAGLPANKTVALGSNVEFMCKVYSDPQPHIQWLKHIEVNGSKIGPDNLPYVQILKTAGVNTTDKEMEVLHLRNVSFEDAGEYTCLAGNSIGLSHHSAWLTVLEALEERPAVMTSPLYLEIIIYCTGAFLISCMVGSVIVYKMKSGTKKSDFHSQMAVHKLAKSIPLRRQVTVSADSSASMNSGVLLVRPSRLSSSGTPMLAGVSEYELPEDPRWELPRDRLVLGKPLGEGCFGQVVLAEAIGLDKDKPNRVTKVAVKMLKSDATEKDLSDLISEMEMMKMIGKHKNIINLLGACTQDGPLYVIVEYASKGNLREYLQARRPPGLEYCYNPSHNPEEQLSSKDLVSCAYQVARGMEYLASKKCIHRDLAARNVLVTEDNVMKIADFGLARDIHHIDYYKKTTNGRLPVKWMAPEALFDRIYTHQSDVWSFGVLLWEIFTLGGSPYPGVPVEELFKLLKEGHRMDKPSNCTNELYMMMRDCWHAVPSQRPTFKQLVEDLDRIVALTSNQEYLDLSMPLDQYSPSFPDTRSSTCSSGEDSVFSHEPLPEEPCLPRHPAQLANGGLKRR
T1 sequence (Q86Z14 whole entry): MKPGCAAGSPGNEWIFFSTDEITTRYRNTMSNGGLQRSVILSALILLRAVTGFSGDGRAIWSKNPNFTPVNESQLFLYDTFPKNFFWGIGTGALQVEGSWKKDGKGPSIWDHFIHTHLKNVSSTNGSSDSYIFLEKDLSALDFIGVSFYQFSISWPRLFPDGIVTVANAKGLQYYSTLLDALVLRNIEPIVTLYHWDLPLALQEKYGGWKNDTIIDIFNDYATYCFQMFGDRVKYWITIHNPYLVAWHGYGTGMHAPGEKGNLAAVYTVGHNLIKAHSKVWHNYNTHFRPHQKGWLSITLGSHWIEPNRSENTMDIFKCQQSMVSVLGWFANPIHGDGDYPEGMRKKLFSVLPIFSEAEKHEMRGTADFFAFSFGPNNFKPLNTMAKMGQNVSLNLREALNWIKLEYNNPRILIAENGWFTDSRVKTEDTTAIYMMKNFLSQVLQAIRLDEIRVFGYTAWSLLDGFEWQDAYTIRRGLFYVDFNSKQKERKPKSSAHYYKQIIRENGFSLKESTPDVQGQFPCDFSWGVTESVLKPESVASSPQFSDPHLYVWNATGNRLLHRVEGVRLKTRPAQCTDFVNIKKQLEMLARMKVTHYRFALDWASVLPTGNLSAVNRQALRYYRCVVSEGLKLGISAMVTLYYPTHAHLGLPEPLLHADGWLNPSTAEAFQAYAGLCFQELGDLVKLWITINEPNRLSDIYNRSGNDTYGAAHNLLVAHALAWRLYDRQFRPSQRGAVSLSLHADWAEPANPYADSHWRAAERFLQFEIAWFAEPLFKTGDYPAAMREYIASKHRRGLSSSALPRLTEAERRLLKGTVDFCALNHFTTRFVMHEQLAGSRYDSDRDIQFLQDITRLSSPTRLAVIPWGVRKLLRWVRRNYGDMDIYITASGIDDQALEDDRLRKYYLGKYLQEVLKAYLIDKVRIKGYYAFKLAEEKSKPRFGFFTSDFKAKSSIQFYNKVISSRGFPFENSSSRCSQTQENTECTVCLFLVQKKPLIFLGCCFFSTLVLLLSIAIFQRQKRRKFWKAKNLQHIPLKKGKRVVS

B1: Compound 12.2: Fatty acid-modified PAS-FGF21 dimer: PAS30FGF21 (SEQ ID NO: 14) modified by the side chain of Example 8.5 (conjugate)
chain: SPCASPAAPAPASPAAPAPSAPAAASAAAPAHPIPDSSPLLQFGGQVRQRYLYTDDAQQTEAHLEIREDGTVGGAADQSPESLLQLKALKPGVIQILGVKTSRFLCQRPDGALYGSLHFDPEACSFRERLLEDGYNVYQSEAHGLPLHLPGNKSPHRDPAPRGPARFLPLPGLPPAPPEPPGILAPQPPDVGSSDPLSMVGGSQGRSPSYES
modifications: dimer; fatty acid side chain of Example 8.5
In data set [1] (setting [5]), B1 yielded an EC50 of 0.13 nM. The same molecule showed a half-life in data set [2] of 65.9 ± 3.8 h. For the same molecule, the NAS score in data set [3] (5 nmol/kg) stood at 4.33 ± 1.03; in data set [3] (20 nmol/kg), 3.40 ± 1.14.

B2: Compound 12.4: Fatty acid-modified PAS-FGF21 dimer: PAS100FGF21 (SEQ ID NO: 16) modified by the side chain of Example 8.5 (conjugate)
chain: SPCASPAAPAPASPAAPAPSAPAAASAAAPAAASAAASAPSAASAAASPAAPSAPPAAASPAAPSAPPAAASPAAPAPASPAASAPSAPAAASPAAPAPASHPIPDSSPLLQFGGQVRQRYLYTDDAQQTEAHLEIREDGTVGGAADQSPESLLQLKALKPGVIQILGVKTSRFLCQRPDGALYGSLHFDPEACSFRERLLEDGYNVYQSEAHGLPLHLPGNKSPHRDPAPRGPARFLPLPGLPPAPPEPPGILAPQPPDVGSSDPLSMVGGSQGRSPSYES
modifications: dimer; fatty acid side chain of Example 8.5
For the molecule B2, the EC50 in data set [1] (setting [5]) amounted to 0.11 nM. In data set [2], this molecule returned a half-life of 75.4 ± 9.4 h.

B3: Compound 12.1: Fatty acid-modified PAS-FGF21 dimer: PAS15FGF21 (SEQ ID NO: 13) modified by the side chain of Example 8.5 (conjugate)
chain: SPCASPAAPAPASPAAHPIPDSSPLLQFGGQVRQRYLYTDDAQQTEAHLEIREDGTVGGAADQSPESLLQLKALKPGVIQILGVKTSRFLCQRPDGALYGSLHFDPEACSFRERLLEDGYNVYQSEAHGLPLHLPGNKSPHRDPAPRGPARFLPLPGLPPAPPEPPGILAPQPPDVGSSDPLSMVGGSQGRSPSYES
modifications: dimer; fatty acid side chain of Example 8.5
With B3, in data set [1] (setting [5]), the concentration giving a half-maximal response (EC50) is 0.09 nM. In addition, the NAS score in data set [3] (5 nmol/kg) is recorded as 3.83 ± 0.98; in data set [3] (20 nmol/kg) it was 3.33 ± 0.82.

B4: Compound 5.7: FGF21D46C mutant (SEQ NO: 7) modified by the albumin-binding agent of Example 2.2 (conjugate)
chain: HPIPDSSPLLQFGGQVRQRYLYTDDAQQTEAHLEIREDGTVGGAACQSPESLLQLKALKPGVIQILGVKTSRFLCQRPDGALYGSLHFDPEACSFRERLLEDGYNVYQSEAHGLPLHLPGNKSPHRDPAPRGPARFLPLPGLPPAPPEPPGILAPQPPDVGSSDPLSMVGGSQGRSPSYES
modifications: albumin-binding agent conjugated
In turn, B4 came in with a half-maximal effective concentration (EC50) in data set [1] (setting [6]) of 1.06 nM. In addition, the half-life in data set [4] came out at 15.9 h.

B5: Compound 5.15: FGF21H125C mutant (SEQ NO: 9) modified by the albumin-binding agent of Example 2.4 (conjugate)
chain: HPIPDSSPLLQFGGQVRQRYLYTDDAQQTEAHLEIREDGTVGGAADQSPESLLQLKALKPGVIQILGVKTSRFLCQRPDGALYGSLHFDPEACSFRERLLEDGYNVYQSEAHGLPLHLPGNKSPCRDPAPRGPARFLPLPGLPPAPPEPPGILAPQPPDVGSSDPLSMVGGSQGRSPSYES
modifications: albumin-binding agent of Example 2.4
The molecule B5 returned a concentration for a half-maximal effect (EC50) in data set [1] (setting [6]) of 0.47 nM. Further, the half-life in data set [4] stood at 14.1 h.

B6: Compound 12.3: Fatty acid-modified PAS-FGF21 dimer: PAS50FGF21 (SEQ ID NO: 15) modified by the side chain of Example 8.5 (conjugate)
chain: SPCASPAAPAPASPAAPAPSAPAAASAAAPAAASAAASAPSAASAAASPAAHPIPDSSPLLQFGGQVRQRYLYTDDAQQTEAHLEIREDGTVGGAADQSPESLLQLKALKPGVIQILGVKTSRFLCQRPDGALYGSLHFDPEACSFRERLLEDGYNVYQSEAHGLPLHLPGNKSPHRDPAPRGPARFLPLPGLPPAPPEPPGILAPQPPDVGSSDPLSMVGGSQGRSPSYES
modifications: dimer; fatty acid side chain of Example 8.5
Molecule B6 showed a concentration for a half-maximal effect (EC50) in data set [1] (setting [5]) of 0.11 nM. The NAS score in data set [3] (5 nmol/kg) turned out to be 4.33 ± 1.37; in data set [3] (20 nmol/kg), 3.00 ± 0.89.

B7: Compound 12.6: Fatty acid-modified PAS-FGF21 dimer: PAS200FGF21 (SEQ ID NO: 17) as printed, modified by the side chain of Example 8.6 (conjugate)
chain: SPCASPAAPAPASPAAPAPSAPAAASAAAPAAASAAASAPSAASAAASPAAPSAPPAAASPAAPSAPPAAASPAAPAPASPAASAPSAPAAASPAAPAPASPAAPAPSAPAAASAAAPAAASAAASAPSASAAASAAAPAAASAAASAPSAASSAASPAAPSAPPAAASPAAPSAPPAAASPAAPAPASPAAPAPSAPAAAHPIPDSSPLLQFGGQVRQRYLYTDDAQQTEAHLEIREDGTVGGAADQSPESLLQLKALKPGVIQILGVKTSRFLCQRPDGALYGSLHFDPEACSFRERLLEDGYNVYQSEAHGLPLHLPGNKSPHRDPAPRGPARFLPLPGLPPAPPEPPGILAPQPPDVGSSDPLSMVGGSQGRSPSYES
modifications: dimer; fatty acid side chain of Example 8.6
The molecule B7 returned a half-life in data set [2] of 61.3 ± 1.1 h.
